Results published in publication PMC3887192.

target: HLA A*0201-…; assay: SPR; details: 25 °C

| Substance | Kd [nM] | dG [kcal/mol-1] | other: Half-life [s] |
| --- | --- | --- | --- |
| ILA1 TCR ILA1α1 (CDR3 mutations, not printed) | 26 | -9.65 | 1100 |
| MEL5 TCR MEL5β1 (CDR2 mutations, not printed) | 1800 | -7.31 | 2.4 |
| MEL5 TCR MEL5β2 (CDR2 mutations, not printed) | 1300 | -7.49 | 2.4 |
| MEL5 TCR MEL5β3 (CDR2 mutations, not printed) | 850 | -7.72 | 4.2 |
| MEL5 TCR MEL5β4 (CDR2 mutations, not printed) | 1400 | -7.45 | 3 |
| MEL5 TCR MEL5β5 (CDR2&3 mutations, not printed) | 2100 | -7.22 | 1.2 |
| MEL5 TCR MEL5β6 (CDR2&3 mutations, not printed) | 210 | -8.49 | 11.4 |
| MEL5 TCR MEL5β7 (CDR2&3 mutations, not printed) | 540 | -7.97 | 27.6 |
| MEL5 TCR MEL5β8 (CDR2&3 mutations, not printed) | 170 | -8.61 | 49.2 |

Now those with a lower Kd, led by results:

| Kd [nM] | dG [kcal/mol-1] | other: Half-life [s] | Substance |
| --- | --- | --- | --- |
| 2 | – | – | ILA1 TCR ILA1α1β1 (CDR2&3 mutations, not printed) |
| 3.1 | – | – | ILA1 TCR ILA1α1β2 (CDR2&3 mutations, not printed) |
| 9.5 | – | – | ILA1 TCR ILA1β1 (CDR2 mutations, not printed) |
| 9.1 | – | – | ILA1 TCR ILA1β2 (CDR2 mutations, not printed) |
